{"source": "patent US8815213B2", "about": "“RGD-(bacterio)chlorophyll conjugates for photodynamic therapy and Imaging of Necrotic tumors” (Yeda Research and Development Co. Ltd., priority 2008, dated 2014)", "key": {"[1]": {"system": "orthotopic human breast MDA-MB-231-RFP primary tumor, necrotic (~1 cm^3)", "settings": "mouse, in vivo", "experimental": "(§2) (vi) Mouse tumor model—MDA-MB-231-RFP fluorescent human breast cancer cells and MLS-mBanana fluorescent human ovarian cancer cells (5×10^6 in 100 μl saline) were trypsinated and collected at subconfluency and then inoculated into the back or mammary fat pad of female mice. Tumors were allowed to develop to two desired sizes—necrotic tumors (˜1 cm^3, within 3-4 weeks) and non-necrotic tumors (˜0.5 cm^3 within 1-2 weeks).\n(§3) (vii) Whole body fluorescence imaging—Mice were anaesthetized by i.p. injection of 30 μl mixture of 85:15 ketamine:xylazine. […] Red fluorescent protein (RFP), pRSETB-mBanana and the photosensitizers fluorescence were monitored by in-vivo optical imaging system, IVIS®100 (Xenogen Corp., Alameda, Calif.). Main filter set for tumor imaging comprised excitation filter at 500-550 nm and emission filter at 575-650 nm; Background filter set for subtracting tissue auto-fluorescence comprised excitation filter at 460-490 nm and emission filter at 575-650 nm. Drugs imaging main filter set comprised excitation filter at 665-695 nm and emission filter at 810-875 nm. Images were obtained during the same exposure time and are illustrated on the same linear color scale to allow for a qualitative comparison.\nThe accumulation pattern of compound 13 in necrotic MDA-MB-231-RFP tumors (≧1 cm^3) in vivo was examined. […] Whole animal images were recorded concomitantly, using the filter sets as described in Materials and Methods section (vii) above. Dynamic fluorescence images were acquired every 1-1.5 h for 9 h, and at 24 h post injection of compound 13 (FIGS. 4A-4B), and then for every 24 h for the next 7 days (FIGS. 5A-5B)."}, "[2]": {"system": "human ovarian MLS-mBanana primary tumors, necrotic (>1 cm^3)", "assay": "In-vivo NIR fluorescence imaging of uptake in MLS-mBanana primary necrotic tumors", "set-up": "species or system CD-1 nude female mice", "source_text": "In order to establish the generality of the results obtained in the experiments above, the accumulation of compound 13 in the necrotic domain was further examined in a different tumor type, generated from MLS-mBanana human ovarian cancer cell line. […] Shortly after injection, the compound 13 NIR fluoresces was mostly detected from the liver and the tumor."}, "[3]": {"system": "MLS-mBanana non-necrotic tumors (~0.5 cm^3)", "settings": "mouse, in vivo", "text": "Red fluorescent protein (RFP), pRSETB-mBanana and the photosensitizers fluorescence were monitored by in-vivo optical imaging system, IVIS®100 (Xenogen Corp., Alameda, Calif.). Main filter set for tumor imaging comprised excitation filter at 500-550 nm and emission filter at 575-650 nm; Background filter set for subtracting tissue auto-fluorescence comprised excitation filter at 460-490 nm and emission filter at 575-650 nm. Drugs imaging main filter set comprised excitation filter at 665-695 nm and emission filter at 810-875 nm. Images were obtained during the same exposure time and are illustrated on the same linear color scale to allow for a qualitative comparison."}, "[4]": {"system": "MDA-MB-231-RFP necrotic tumor domains", "assay": "Excised tumor fluorescence imaging, viable versus necrotic domains", "type": "in vivo, mice", "method": "(§1) Mice were sacrificed, tumors were excised, cut in half and imaged at different time intervals: 10 min, 1, 4 and 24 h, 3, 5 and 7 days for MDA-MB-231-RFP and 7 days for MLS-mBanana using the Xenogen IVIS® System. Filter sets used for the fluorescence imaging are described in (vii).\nThe markedly different dynamic fluorescence patterns of necrotic and non-necrotic breast tumor xenografts implanted in the mammary pads, motivated investigation of the correlation between the tumor histology and compound 13 fluorescence signal accumulation. […] Images were taken at several time points (10 min, 1, 4 and 24 h, 3, 5 and 7 days post injection) using Xenogen IVIS® System as described in Materials and Methods, section (vii). Results shown in FIGS. 23-29 present compound 13 fluorescence accumulation at different time points. For each time point, 3 animals were tested. […] At 4 h, there was some diffusion towards the necrotic domain. […] In this set of experiments it was shown that as time progresses, compound 13 moves through the viable domain into the necrotic domain and accumulates there specifically for a long period of time.\nIn view of the pattern of accumulation observed for compound 13, other Bchl derivatives were tested. […] Images were taken using Xenogen IVIS® System as described above. […] Similar results were observed when tumors were excised 3 and 5 days post drug injection (N=3 for each time point)."}, "[5]": {"system": "MDA-MB-231-RFP non-necrotic tumors (~0.5 cm^3)", "settings": "mouse, in vivo", "experimental": "as §2, §3\n(§4) The same parameters were next examined in tumors ≦0.5 cm^3, which are non-necrotic."}, "[6]": {"system": "MLS-mBanana necrotic tumor domains", "assay": "Excised tumor fluorescence imaging, MLS-mBanana", "type": "in vivo, mice", "settings": "7 days post drug injection", "method": "as §1\nHere the results were somewhat different. In most cases the necrosis pattern in this type of tumor was not central, namely, there was a wide spread necrosis that was not specifically located in the middle of the tumor or generated from one place in the tumor. In these cases, the accumulation was not as prolonged. In the few cases where central necrosis was observed, the accumulation pattern was similar to that in the MDA-MB-231-RFP tumors. FIGS. 31-32 show the results obtained 7 days post drug injection."}, "[7]": {"system": "MDA-MB-231-RFP primary non-necrotic tumors", "assay": "Competition assay between compound 13 and free c(RGDfK) binding", "type": "in vivo, mice", "settings": "24 h", "method": "(ix) Competition assay between compound 13 and free c(RGDfK) binding—Mice were injected with excess (8.5 μmol) of free c(RGDfK) peptide one hour prior to the injection of compound 13 (140 nmol). The control group was injected only with compound 13 (140 nmol). Fluorescent images were taken 24 h post compound 13 injection. Fluorescence imaging main filter set was used as described in (vii).\nCompound 13 was administrated with or without prior injection of c(RGDfK) as described in Example 3."}, "[8]": {"system": "MDA-MB-231-RFP necrotic tumors", "assay": "Fluorescence signal measurement in necrotic tumors, tumor vs. collateral side", "type": "in vivo", "settings": "average of 9 mice", "method": "(viii) Fluorescence signal measurement in necrotic tumors—Tumor margins—region of interest (ROI), from the whole body in-vivo images was marked and the fluorescence signal within the circled margins was expressed in photon/sec.\nThe same ROI was used to measure photon/sec in the collateral side. In addition, for background measurements, tumor and collateral side ROIs were measured in three untreated mice and averaged. Measured values of the fluorescence from each ROI were divided by the area to provide normalized fluorescence signal intensity in photon/sec/cm^2. Signal measurements were collected from 15 min to 216 h post compound 13 injection. In each time point, the background was subtracted and the average was calculated as was the ratio between the fluorescence in the tumor margins and the collateral side.\nIn order to evaluate semi-quantitatively the accumulation pattern of compound 13 in necrotic tumors, the average fluorescence signal for compound 13 in necrotic tumors of 9 mice was calculated and plotted over 216 h, at several time points (FIG. 8). From 12 h post injection and onward the fluorescence signal from the tumor became distinctively stronger than that of an equivalent control region on the collateral side. The ratio of the fluorescence between the tumor and the collateral side increased in time and reached a plateau at ˜8 from 192 h."}, "[9]": {"system": "MDA-MB-231-RFP non-necrotic and necrotic tumors at the mammary pad", "assay": "Uptake of compound 25 in MDA-MB-231-RFP primary, necrotic and non necrotic tumors", "type": "in vivo, CD1-nude mice", "method": "Two experiments were performed in order to determine whether the tumor up-take of compound 13 and the resulted accumulation of the NIR fluorescence signal are driven by the RGD moiety. In the first experiment the accumulation of the fluorescence signal at different times after compound 13 injection was compared to that of free 2H-MLT (compound 25) injection to CD1-nude mice grafted with MDA-MB-231-RFP non-necrotic (≦0.5 cm^3) and necrotic (˜1 cm^3) tumors at the mammary pad. The second experiment was a competition assay between compound 13 and free c(RGDfK).\nDynamic fluorescence images were acquired for both necrotic and non necrotic tumors every 1-1.5 h for 8.5-9 h, and at 24 h after initial injection of compound 25 (FIGS. 18A-18B and 20A-20B) and for every 24 h for the following three days (FIGS. 19A-19B and 21A-21B). […] The fluorescence signal values were ˜2 orders of magnitude smaller than the maximally observed values for compound 13 (at much longer time intervals). The fluorescence signal dropped down to non-significant values already at 20 min post injection. Meanwhile, the fluorescence signal accumulated mostly in the liver and in the heart."}, "[10]": {"system": "MDA-MB-231-RFP non-necrotic tumors (~0.5 cm^3)", "assay": "In-vivo whole body NIR fluorescence imaging of drug up-take in primary non-necrotic MDA-MB-231-RFP xenograft tumors", "experimental": "as §2, §3, §4"}, "[11]": {"system": "xenografts of primary tumors", "settings": "up to; cited from earlier work"}}, "note": "Counter-ions that a name gives are not always drawn. Like-named read-outs stand apart in the source and are kept apart here.", "data": [{"compound": "CC[C@H]1c2cc3[nH]c(c(CC(=O)OC)c4nc(cc5[nH]c(cc(n2)[C@@H]1C)c(C(C)=O)c5C)[C@@H](C)[C@@H]4CCC(=O)NCCCC[C@@H]1NC(=O)[C@@H](Cc2ccccc2)NC(=O)[C@H](CC(=O)O)NC(=O)CNC(=O)[C@H](CCCNC(=N)N)NC1=O)c(C(=O)NCCS(=O)(=O)O)c3C", "note": "[compound 13, 3^1-oxo-15-methoxycarbonylmethyl-Rhodobacteriochlorin 13^1-(2-sulfoethyl) amide-17^3-c(RGDfK)amide potassium salt]", "values": [{"measurement": "time of peak tumor concentration ratio, compared to other organs", "setting": "[1]", "result": "≥ 48", "unit": "h"}, {"measurement": "clearance from the liver in the following days", "setting": "[1]; iv, 15 mg/kg", "result": "completely clearing from the liver"}, {"measurement": "clearance from the tumor thereafter", "setting": "[1]; iv, 15 mg/kg", "result": "extremely slow clearance"}, {"measurement": "clearance compared with MDA-MB-231-RFP necrotic tumors", "setting": "[2]; mouse, in vivo", "result": "markedly faster"}, {"measurement": "clearance from the tumor almost completed", "setting": "[2]; mouse, in vivo", "result": 3, "unit": "days"}, {"measurement": "complete drug clearance by that time", "setting": "[2]; mouse, in vivo", "result": "≤ 4", "unit": "days"}, {"measurement": "time of maximum concentration in the necrotic zone", "setting": "[2]; mouse, in vivo", "result": 24, "unit": "h"}, {"measurement": "concentration in necrotic tumors versus non-necrotic tumors", "setting": "[2]; same linear fluorescence scale, 2 days post injection", "result": "much higher"}, {"measurement": "almost complete drug clearance by that time", "setting": "[3]", "result": "≤ 4", "unit": "days"}, {"measurement": "time at which NIR fluorescence reached peak values in the tumor", "setting": "[3]", "result": "~1", "unit": "h"}, {"measurement": "time of peak tumor fluorescence, average measurements", "setting": "[3]", "result": "1 to 3.5", "unit": "h"}, {"measurement": "location of drug fluorescence in excised tumor", "setting": "[4]; 10 min to 4 h post drug injection, 15 mg/kg", "result": "only at the viable area"}, {"measurement": "location of drug fluorescence in excised tumor", "setting": "[4]; 24 h post injection", "result": "higher drug fluorescence from the necrotic domain"}, {"measurement": "location of drug fluorescence in excised tumor", "setting": "[4]; from three days post injection (3, 5 and 7 days)", "result": "shifted completely to the necrotic zone"}, {"measurement": "clearance from the tumor after accumulation", "setting": "[5]", "result": "< 24", "unit": "h"}, {"measurement": "complete drug clearance by that time", "setting": "[5]", "result": "≤ 3", "unit": "days"}, {"measurement": "fluorescence from the non-necrotic tumors", "setting": "[5]", "result": "practically no fluorescence"}, {"measurement": "time of peak tumor fluorescence, averaged measurements", "setting": "[5]", "result": "1 to 6.5", "unit": "h"}, {"measurement": "presence of drug in excised tumor", "setting": "[6]; central necrosis", "result": "clearly present in the necrotic domain"}, {"measurement": "presence of drug in excised tumor", "setting": "[6]; no central necrosis", "result": "not present"}, {"measurement": "accumulation in the tumor", "setting": "[7]; 140 nmol alone (control group)", "result": "detectable"}, {"measurement": "accumulation in the tumor", "setting": "[7]; 140 nmol, 1 h after 8.5 μmol free c(RGDfK)", "result": "no accumulation in the tumor was detected"}, {"measurement": "ratio of the fluorescence between the tumor and the collateral side, plateau", "setting": "[8]; from 192 h post injection", "result": "~8"}, {"measurement": "time from which tumor fluorescence signal is distinctively stronger than collateral side", "setting": "[8]; post injection", "result": "≥ 12", "unit": "h"}]}, {"compound": "CC[C@H]1c2cc3[nH]c(c(CC(=O)OC)c4nc(cc5[nH]c(cc(n2)[C@@H]1C)c(C(C)=O)c5C)[C@@H](C)[C@@H]4CCC(=O)O)c(C(=O)NCCS(=O)(=O)[O-])c3C.[K+]", "note": "[compound 25, 3^1-oxo-15-methoxycarbonylmethyl-Rhodo-bacteriochlorin 13^1-(2-sulfoethyl) amide potassium salt]", "values": [{"measurement": "accumulation in small (non-necrotic) and large (necrotic) tumors", "setting": "[9]; mouse, in vivo", "result": "no short or long term accumulation was observed"}, {"measurement": "fluorescence signal values, smaller than the maximally observed values for compound 13", "setting": "[9]; mouse, in vivo", "result": "~2 orders of magnitude"}, {"measurement": "time at which fluorescence signal dropped to non-significant values", "setting": "[9]; post injection", "result": "≤ 20", "unit": "min"}, {"measurement": "time of maximal concentration (NIR fluorescence signal) in the tumor", "setting": "[9]; post injection, if any concentration was observed at all", "result": "5 to 10", "unit": "min"}]}, {"compound": "Palladium 3^1-oxo-15-methoxycarbonyl-methyl-Rhodobacteriochlorin 13^1-(2-sulfoethyl)amide-17^3-c(RGDfK)amide potassium salt [compound 24]", "values": [{"measurement": "time at which NIR fluorescence reached peak values in the liver", "setting": "[10]; 15 mg/kg i.v., post drug injection", "result": 5.5, "unit": "h"}, {"measurement": "time at which NIR fluorescence reached peak values in the tumor", "setting": "[10]; 15 mg/kg i.v., post injection", "result": "~2.5", "unit": "h"}, {"measurement": "fluorescence from the non-necrotic tumors", "setting": "[10]; 24 hours post injection", "result": "practically no fluorescence"}, {"measurement": "time of peak tumor fluorescence, averaged measurements", "setting": "[10]; post drug injection, 16 animals (compound 13), 5 animals (compound 24)", "result": "1 to 4.5", "unit": "h"}, {"measurement": "accumulation in xenografts of primary tumors", "setting": "[11]", "result": "4 to 8", "unit": "µM"}, {"measurement": "presence of drug in excised tumor", "setting": "[4]; nine days post drug injection, N=3", "result": "clearly present in the necrotic domain"}]}]}
